These results are taken from publication PMC5734687 (PLoS ONE, 2017).

No end group written: not given here.

The target of experiment [1] is HER2 fragment V529-P625, C-terminal GSH6 tag (UniProt P04626). The experiment in a line: SPR; Biacore T200; biotinylated HER2 fragment V529-P625 immobilised on streptavidin chip (SA); scFv 0.2-5 μM in 50 mM sodium phosphate pH 7.4; triplicate.
Experiment [2] deals with T1, full length human ITGA4 (antigen CD49, α4 subunit of VLA-4 receptor) (Homo sapiens, UniProt P13612).
T1 construct: integrin alpha-4 (ITGA4, CD49, α4 subunit of VLA-4), human, full length; also called ITG4A; ITGA4 full length
In words: far-Western, overlay or dot blot; dot blot: 80 ng full length ITGA4 spotted on Immobilon-P; 6 μg/mL scFv in TBS, 1 h, room temperature; detected with HRP-labelled anti-His tag antibody. Particulars: both partners purified.

In experiment [3] the target is T2, synthetic peptide DATAEEEEDFGEEA corresponding to residues 427-440 of human β-tubulin (Homo sapiens).
T2 construct: also called β-tubulin peptide; source: synthetic peptide (Fmoc chemistry, ABI433A)
T2 chain: DATAEEEEDFGEEA-biotin
In words: SPR; Biacore T200; C-terminally biotinylated β-tubulin peptide immobilised on streptavidin chip (SA); scFv 0.375-12 μM in 50 mM sodium phosphate pH 7.4. The conditions noted are these: both partners purified.

What is called Kd is the constant that tells how readily two partners part at equilibrium. The low end stands for higher affinity, the high end for lower affinity. The molecule “natalizumab framework-trastuzumab CDRs hybrid scFv, expressed with CyDisCo” had a Kd in experiment [1] of 0.147 µM.

B1: natalizumab scFv (IgG4 humanized), expressed without CyDisCo (scFv, V domains shown)
VH: QVQLVQSGAEVKKPGASVKVSCKASGFNIKDTYIHWVRQAPGQRLEWMGRIDPANGYTKYDPKFQGRVTITADTSASTAYMELSSLRSEDEAVYYCAREGYYGNYGVYAMDYWGQGTLVTVSS
VL: DIQMTQSPSSLSASVGDRVTITCKTSQDINKYMAWYQQTPGKAPRLLIHYTSALQPGIPSRFSGSGSGRDYTFTISSLQPEDIATYYCLQYDNLWTFGQGTKVEIK
notes: VL of natalizumab, as the VL of m5; linker, printed as (Gly4Ser)3; VH of natalizumab, as the VH of m5; expected mass 27755 Da); also called natalizumab - CyDisCo; Tysabri scFv; source: E. coli BW25113 cytoplasm, without CyDisCo (control vector pAG82), purified (IMAC, desalted); not shown: GSH6, C-terminal, kept
As to B1, in experiment [2], the binding result is listed as “binds”.

B2: natalizumab scFv (IgG4 humanized), expressed with CyDisCo (scFv, V domains shown)
VH: B1 VH
VL: B1 VL
notes: VL of natalizumab; linker, printed as (Gly4Ser)3; VH of natalizumab; expected mass 27751 Da); also called natalizumab-natalizumab; Tysabri scFv; source: E. coli BW25113 cytoplasm, co-expressed with CyDisCo (Erv1p and PDI), purified (IMAC, desalted); not shown: GSH6, C-terminal, kept
In the case of B2, the binding result in experiment [2] was “binds”.

B3: IgA1 scFv (human), expressed with CyDisCo (scFv, V domains shown)
VH: EVQLVESGGGLVQPGGSLKLSCAASGFTLSGSNVHWVRQASGKGLEWVGRIKRNAESDATAYAASMRGRLTISRDDSKNTAFLQMNSLKSDDTAMYYCVIRGDVYNRQWGQGTLVTVSS
VL: DIVMTQSPLSLSVTPGEPASISCRSSQSLLRRDGHNDLEWYLQKPGQSPQPLIYLGSTRASGVPDRFSGSGSGTDFTLKIIRVEAEDAGTYYCMQNKQTPLTFGQGTRLEIK
notes: VL of the anti-beta-tubulin IgA1; linker, printed as (Gly4Ser)3; VH of the anti-beta-tubulin IgA1; Expected mass 27342 Da with disulfide bonds; also called IgA1-IgA1; parental scFv IgA1; source: E. coli BW25113 cytoplasm, co-expressed with CyDisCo (Erv1p and PDI), purified (IMAC, desalted)
B3: the Kd in experiment [3] turned out to be 3.56 µM.
